# Experimental data taken from patent US20210147504A1 (Bayer, published 2021).
# Several values for one entry are separate records, joined by “and”; a condition that tells them apart may be missing. Equal entries are not always repeated.
# Experiments:
# [1] = biological target: T1, human NPRA (human, UniProt P16066 33-1061); test: cell-based or functional assay
# T1 sequence (looked up): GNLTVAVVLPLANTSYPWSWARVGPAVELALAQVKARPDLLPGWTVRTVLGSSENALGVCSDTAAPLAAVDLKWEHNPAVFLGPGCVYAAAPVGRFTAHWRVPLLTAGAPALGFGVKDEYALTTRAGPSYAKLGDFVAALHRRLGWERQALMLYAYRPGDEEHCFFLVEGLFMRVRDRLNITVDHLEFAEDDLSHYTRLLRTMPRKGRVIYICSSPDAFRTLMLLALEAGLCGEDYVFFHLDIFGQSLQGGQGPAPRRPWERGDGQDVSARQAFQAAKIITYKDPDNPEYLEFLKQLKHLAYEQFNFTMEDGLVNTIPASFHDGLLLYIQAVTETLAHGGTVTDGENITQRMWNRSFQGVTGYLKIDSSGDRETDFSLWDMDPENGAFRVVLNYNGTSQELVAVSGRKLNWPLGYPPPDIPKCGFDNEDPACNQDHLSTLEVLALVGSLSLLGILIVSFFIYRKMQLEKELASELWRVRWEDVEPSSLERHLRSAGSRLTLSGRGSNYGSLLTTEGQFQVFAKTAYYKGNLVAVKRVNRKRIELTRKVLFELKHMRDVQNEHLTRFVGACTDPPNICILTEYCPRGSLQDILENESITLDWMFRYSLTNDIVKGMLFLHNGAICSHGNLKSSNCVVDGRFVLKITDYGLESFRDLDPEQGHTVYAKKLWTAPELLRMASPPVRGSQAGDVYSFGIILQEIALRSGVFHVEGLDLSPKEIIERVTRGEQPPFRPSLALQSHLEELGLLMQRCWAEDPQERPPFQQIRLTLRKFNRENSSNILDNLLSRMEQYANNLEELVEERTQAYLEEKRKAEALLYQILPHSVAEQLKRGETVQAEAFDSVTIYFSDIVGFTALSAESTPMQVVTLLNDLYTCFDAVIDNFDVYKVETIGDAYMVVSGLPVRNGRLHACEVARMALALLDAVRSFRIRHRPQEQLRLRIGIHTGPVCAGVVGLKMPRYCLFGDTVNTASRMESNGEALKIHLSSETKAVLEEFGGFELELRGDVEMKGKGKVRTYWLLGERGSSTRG
# [2] = biological target: T2, human NPRA (human, UniProt P16066 33-1061); test: cell-based or functional assay; remark: listed apart in the source
# T2 sequence (looked up): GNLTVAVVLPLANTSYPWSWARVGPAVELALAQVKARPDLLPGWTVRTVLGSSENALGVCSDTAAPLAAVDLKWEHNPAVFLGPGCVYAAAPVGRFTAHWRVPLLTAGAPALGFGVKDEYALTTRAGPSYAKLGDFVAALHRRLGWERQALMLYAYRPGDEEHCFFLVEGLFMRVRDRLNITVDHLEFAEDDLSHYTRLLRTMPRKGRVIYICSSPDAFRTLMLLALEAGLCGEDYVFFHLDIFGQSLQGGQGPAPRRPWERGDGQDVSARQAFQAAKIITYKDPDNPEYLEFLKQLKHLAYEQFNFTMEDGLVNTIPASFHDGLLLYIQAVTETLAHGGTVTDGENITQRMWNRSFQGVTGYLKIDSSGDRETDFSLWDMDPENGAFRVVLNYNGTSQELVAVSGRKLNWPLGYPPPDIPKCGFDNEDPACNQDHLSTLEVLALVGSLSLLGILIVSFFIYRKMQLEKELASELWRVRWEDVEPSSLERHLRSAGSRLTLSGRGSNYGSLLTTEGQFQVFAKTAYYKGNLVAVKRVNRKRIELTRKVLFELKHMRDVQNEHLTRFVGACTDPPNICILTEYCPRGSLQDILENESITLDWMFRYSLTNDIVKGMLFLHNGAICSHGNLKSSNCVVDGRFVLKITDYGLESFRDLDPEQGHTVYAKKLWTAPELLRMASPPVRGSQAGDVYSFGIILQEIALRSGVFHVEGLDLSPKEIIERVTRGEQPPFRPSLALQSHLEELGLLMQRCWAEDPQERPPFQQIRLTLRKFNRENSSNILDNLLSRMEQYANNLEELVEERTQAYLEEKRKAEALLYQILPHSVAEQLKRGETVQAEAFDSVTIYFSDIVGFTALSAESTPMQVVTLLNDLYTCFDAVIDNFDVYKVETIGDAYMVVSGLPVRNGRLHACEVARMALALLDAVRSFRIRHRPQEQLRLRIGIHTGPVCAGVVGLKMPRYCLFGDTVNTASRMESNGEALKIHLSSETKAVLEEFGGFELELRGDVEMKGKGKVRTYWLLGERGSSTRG
binder,measurement,setting,value
"TPP-13054 (antibody, human IgG1, lambda) heavy: not shown light: QSVLTQPPSVSGAPGQRVTISCTGSSSNIGAGYDVHWYQQLPGTAPKLLIYGNSNRPSGVPDRFSGSKSGTSASLAITGLQAEDEADYYCQSYDSSLSGVVFGGGTKLTVLGQPKAAPSVTLFPPSSEELQANKATLVCLISDFYPGAVTVAWKADSSPVKAGVETTTPSKQSNNKYAASSYLSLTPEQWKSHRSYSCQVTHEGSTVEKTVAPTECS",average rel logEC50,[1],-0.8 log vs TPP-5661
same,rel. logEC50* pcs,[1],-0.7 log vs TPP-5661 and -0.8 log vs TPP-5661
"TPP-10765 (antibody, human IgG1, lambda) heavy: not shown light: QSVLTQPPSVSGAPGQRVTISCTGSSSNIGAGYDVHWYQQLPGTAPKLLIYGNSNRPSGVPDRFSGSKSGTSASLAITGLQAEDEADYYCQSYDSSLSGVVFGGGTKLTVLGQPKAAPSVTLFPPSSEELQANKATLVCLISDFYPGAVTVAWKADSSPVKAGVETTTPSKQSNNKYAASSYLSLTPEQWKSHRSYSCQVTHEGSTVEKTVAPTECS",activity rcs,[1],72%
same,average rel logEC50,[1],-0.4 log vs TPP-5661
same,rel. activity rcs,[1],-0.9 log vs TPP-5661
same,rel. logEC50 pcs 5,[1],-0.9 log vs TPP-5661
same,rel. logEC50 pcs 6,[1],-0.4 log vs TPP-5661
same,rel. logEC50 pcs 7,[1],0.2 log vs TPP-5661
TPP-5661 (antibody) heavy: not shown light: QSVLTQPPSVSGAPGQRVTISCTGSSSNIGAGYDVHWYQQLPGTAPKLLIYGNSNRPSGVPDRFSGSKSGTSASLAITGLQAEDEADYYCQSYDSSLSGVVFGGGTKLTVLGQPKAAPSVTLFPPSSEELQANKATLVCLISDFYPGAVTVAWKADSSPVKAGVETTTPSKQSNNKYAASSYLSLTPEQWKSHRSYSCQVTHEGSTVEKTVAPTECS,activity rcs,[2],36%
same,average rel logEC50,[2],0 log vs TPP-5661
same,rel. activity rcs,[2],0 log vs TPP-5661
same,rel. logEC50* pcs,[2],0 log vs TPP-5661
same,rel. logEC50 ics,[2],0 log vs TPP-5661
same,rel. logEC50 pcs 1,[2],0 log vs TPP-5661
same,rel. logEC50 pcs 2,[2],0 log vs TPP-5661
same,rel. logEC50 pcs 3,[2],0 log vs TPP-5661
same,rel. logEC50 pcs 4,[2],0 log vs TPP-5661
same,rel. logEC50 pcs 5,[2],0 log vs TPP-5661
same,rel. logEC50 pcs 6,[2],0 log vs TPP-5661
same,rel. logEC50 pcs 7,[2],0 log vs TPP-5661
same,rel. logEC50 pcs 8,[2],0 log vs TPP-5661
same,rel. logEC50 pcs 9,[2],0 log vs TPP-5661
"TPP-10845 (antibody, human IgG1, lambda) heavy: not shown light: QSVLTQPPSVSGAPGQRVTISCTGSSSNIGAGYDVHWYQQLPGTAPKLLIYGNSNRPSGVPDRFSGSKSGTSASLAITGLQAEDEADYYCQSYDSSLSGVVFGGGTKLTVLGQPKAAPSVTLFPPSSEELQANKATLVCLISDFYPGAVTVAWKADSSPVKAGVETTTPSKQSNNKYAASSYLSLTPEQWKSHRSYSCQVTHEGSTVEKTVAPTECS",activity rcs,[1],67%
same,average rel logEC50,[1],-0.6 log vs TPP-5661
same,rel. logEC50 pcs 5,[1],-0.4 log vs TPP-5661
same,rel. logEC50 pcs 6,[1],-0.8 log vs TPP-5661
"TPP-10282 (antibody, human IgG1, lambda) heavy: not shown light: QSVLTQPPSVSGAPGQRVTISCTGSSSNIGAGYDVHWYQQLPGTAPKLLIYGNSNRPSGVPDRFSGSKSGTSASLAITGLQAEDEADYYCQSYDSSLSGVVFGGGTKLTVLGQPKAAPSVTLFPPSSEELQANKATLVCLISDFYPGAVTVAWKADSSPVKAGVETTTPSKQSNNKYAASSYLSLTPEQWKSHRSYSCQVTHEGSTVEKTVAPTECS",activity rcs,[1],30%
same,average rel logEC50,[1],0.1 log vs TPP-5661
same,rel. activity rcs,[1],0.3 log vs TPP-5661
same,rel. logEC50 pcs 1,[1],0.3 log vs TPP-5661
same,rel. logEC50 pcs 2,[1],-0.2 log vs TPP-5661
same,rel. logEC50 pcs 4,[1],0.1 log vs TPP-5661
same,rel. logEC50 pcs 5,[1],0.2 log vs TPP-5661
TPP-10290 (antibody) heavy: not shown light: QSVLTQPPSVSGAPGQRVTISCTGSSSNIGAGYDVHWYQQLPGTAPKLLIYGNSNRPSGVPDRFSGSKSGTSASLAITGLQAEDEADYYCQSYDSSLSGVVFGGGTKLTVLGQPKAAPSVTLFPPSSEELQANKATLVCLISDFYPGAVTVAWKADSSPVKAGVETTTPSKQSNNKYAASSYLSLTPEQWKSHRSYSCQVTHEGSTVEKTVAPTECS,activity rcs,[2],84%
same,average rel logEC50,[2],-0.5 log vs TPP-5661
same,rel. logEC50 pcs 2,[2],-0.8 log vs TPP-5661
same,rel. logEC50 pcs 3,[2],-0.1 log vs TPP-5661
"TPP-10361 (antibody, human IgG1, lambda) heavy: not shown light: QSVLTQPPSVSGAPGQRVTISCTGSSSNIGAGYDVHWYQQLPGTAPKLLIYGSGSGSGSGSGSPDGGSGGSLRRSSCFGGRMDRIGAQSGLGCNSFRYGSYGSGGSGSGSGNRPSGVPDRFSGSKSGTSASLAITGLQAEDEADYYCQSYDSSLSGVVFGGGTKLTVLGQPKAAPSVTLFPPSSEELQANKATLVCLISDFYPGAVTVAWKADSSPVKAGVETTTPSKQSNNKYAASSYLSLTPEQWKSHRSYSCQVTHEGSTVEKTVAPTECS",activity rcs,[2],20%
same,average rel logEC50,[2],-0.1 log vs TPP-5661
same,rel. activity rcs,[2],-0.1 log vs TPP-5661
same,rel. logEC50 pcs 5,[2],-0.1 log vs TPP-5661
